Experimental findings from the nanobody polyreactivity screen of Harvey et al. (2022) are described below.

The data set is described as follows: yeast display, Sf9 membrane polyspecificity reagent, FACS + sequencing; frameworks hold sequencing errors. The essentials: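 Galactose induction of a Saccharomyces cerevisiae BJ5465 synthetic nanobody display library ran 36–48 hours. The cells were then stained for 1 hour at 4 °C with 10% biotinylated, detergent-solubilized Sf9 membrane reagent, pulled down on streptavidin microbeads and FACS-sorted into low and high (top ~1%) gates on expression and reagent-binding fluorescence. Labels for polyreactivity follow the gate of origin.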
Turning to “QVQLVESGRGLVQAGGSLRLSCAASGITFWYYAMGWYRQAPGKERELVASINRSGGSTYADSVKGRFTISRDNAKITVYLQMNSLKPEDTAVYYCAARLYSSVVRYRYGYWGQGTQVTVSS”, the “polyreactivity (PSR sort gate)” value is “high polyreactivity”. Next, “QVQLVESGRGLVQAGGSLRLSCAASGITLYTNAMGWYRQAPGKEREFVAGISWNGGRTYYADSVKGRFTISRDNAKNTVYLQMNSLKPEDTAVYYCNARFVYRYKYYYWGQGTQVTVSS”: “high polyreactivity”; “QVQLVESGRGLVQAGGSLRLSCAASGLTFSKYAMGWYRQAPGKERELVATISRSGGSTYYADSVKGRFTISRDNAKNTVYVQMNSLKPEDTAVYYCAAGSILYGATGEYIYWGQGTQVTVSS”: “high polyreactivity”; “QVQLVESGRGLVQAGGSLRLSCAASGLTFVYYDMGWYRQAPGKERELVAAITYIGTSTYYADSVKGRFTISRDNAKNTVYLQMNSLKPEDTAVYYCAAPFPIRSGESWRTDLGYDYWGQGTQVTVSS”: “low polyreactivity”.

Consider “QVQLVESGRGLVQAGGSLRLSCAASGNTFNVNAMVWYRQEPGKERELVAAITRSGGITYYADSVKGRFTISRDNAKNTVYLQLNSMKPEDTAVYYCAVEGFGYAYYYFYEYDYWGQGTQVTVSS”, for which the “polyreactivity (PSR sort gate)” value is “high polyreactivity”. Next, “QVQLVESGRGLVQAGGSLRLSCAASGRIFKRYTMGWYRPAPGKETELVAGITFSGGSTYYADSVKGRFTISRDNAKNTVYLQMNSLKREDTAVYYCAADDAYYTYQYDYWGQGTQVTVSS”: “low polyreactivity”; “QVQLVESGRGLVQAGGSLRLSCAASGRIFLANAMGWSRQAPGKERELVAAISLSGGRTYYADSVKGRFTISRDIAKNTVYLQMNSLKPEDTAFYYCAAEFYPIGYYGGYDYWGPGTQVTVSS”: “low polyreactivity”.

On to “QVQLVESGRGLVQAGGSLRLSCAASGRIFLYYAMGWYRQAPGKEREFVAAITYIGGSTYYADSVKGRFTISRDNAKNTVYLQMNSLKPEDTAVYWGQGTQVTVSS”, for which the “polyreactivity (PSR sort gate)” value is “low polyreactivity”.

For “QVQLVESGRGLVQAGGSLRLSCAASGRIFRVNAMGWYRQAPGKERELVAAISWGGGSTYYADSVKGRFTISRDNAKNTVYLQMNSLKPEDTAVYYCATTLVKSQSRYYYWGQGTQVTVSS”, the “polyreactivity (PSR sort gate)” value is “high polyreactivity”. For “QVQLVESGRGLVQAGGSLRLSCAASGRIFRVNAMGWYRQAPGKERELVAAISWGGGSTYYADSVKGRFTISRDNAKNTVYLQMNSLKREDTAVYYCATTLVKSQSRYYYWGQGTQVTVSS”, the “polyreactivity (PSR sort gate)” value is on record as “high polyreactivity”.

On to “QVQLVESGRGLVQAGGSLRLSCAASGRIFVYYAMGWYRQAPGKERELVATISSGGSTYYADSVKGRFTISRDNAKNTVYLQMNSLKPEDTAVYYCAADNVNRYLAYYYKGDYWGQGTQVTVSS”, for which the “polyreactivity (PSR sort gate)” value is recorded as “low polyreactivity”. For “QVQLVESGRGLVQAGGSLRLSCAASGRTFRAYAMGWYRQAPGKERELVAAISSRGGSTYYADSVKGRFTISRDNAKNTVYFQMNSLKPEDTAVYYCNVDRYVRGLITFDYWGQGTQVTVSS”, the “polyreactivity (PSR sort gate)” value was “high polyreactivity”. Turning to “QVQLVESGRGLVQAGGSLRLSCAASGRTFSYYVMGWYRQAPGKERELVAAISDSGGSTYYADSVKGRFTISRDNAKNTVYLQMNSLKPEDTAVYYCATDSYWYRLREYNYWGQGTQVTVSS”, the “polyreactivity (PSR sort gate)” value is on record as “high polyreactivity”. Take “QVQLVESGRGLVQAGGSLRLSCAASGRTIKYYAMGWYRQAPGKDRELVAVISWSGGSTYYADSVKGRFTISRDNAKNTVYLQMNSLKPEDTAVYYCNAYVYAYYAGYNYWGQGTQLTVSS”: the “polyreactivity (PSR sort gate)” value was “high polyreactivity”.

Turning to “QVQLVESGRGLVQAGGSLRLSCAASGRTLAFNAMGWYRQAPGKERELVAVIRNGTSTNYADSVKGRFTISRDNAKNTVYLQMNSLKPEDTAVYYCNVPYYLPSYLSGYDYWGQGTQVTVSS”, the “polyreactivity (PSR sort gate)” value is listed as “low polyreactivity”. Take “QVQLVESGRGLVQAGGSLRLSCAASGSIFEQNVMGWYRQAPGKERELVAAITRGGSTNYADSVKGRFTISRDNAKNTVYLQMNSLKPEDTAVYYCSKRRWLGPSTLGYWGQGNQVTVSS”: the “polyreactivity (PSR sort gate)” value is listed as “low polyreactivity”. In the case of “QVQLVESGRGLVQAGGSLRLSCAASGSIFSSYAMGWYRQAPGKERELVAAITWSGGRTYYADSVKGRFTISRDNAKNTVYLQMNSLKPEDTAVYYCNAVYLAYGGDYWGQGTQVTVSS”, the “polyreactivity (PSR sort gate)” value was “high polyreactivity”. Turning to “QVQLVESGRGLVQAGGSLRLSCAASGSILRNYAMGWYRQAPGKERELVAAISKSGGTTYYADSVKGRFTISRDNAKNTVYLQMNSLKPEDTAVYYCAARPGYLYDYWGQGTQVTVSS”, the “polyreactivity (PSR sort gate)” value was “high polyreactivity”.

For the sequence “QVQLVESGRGLVQAGGSLRLSCAASGSILYSYAMGWYRQAPGKERELVAAISSSGGTNYAASVKGSFTISRDNAKNTVYLQMNSLKPEDTEVYYCNADVLDGGYDYWGQGTQVTVSS”, the “polyreactivity (PSR sort gate)” value is recorded as “low polyreactivity”. “QVQLVESGRGLVQAGGSLRLSCAASGSTFGGYAMGWNRPAPGKERELVAAISIEGGSTYYAESVKGRFTISRDNAKNTVYLQMNSLKPEDTAVYYCNADEYYYGYNYWGQATQVTVSS”: the “polyreactivity (PSR sort gate)” value is recorded as “low polyreactivity”. For the sequence “QVQLVESGRGLVQAGGSLRLSCAASGSTFKRYVIGWYRQAPGKERELVAVINCSGGSTYADSVKGRYTISRDNAKNTVYLQMNSLKPEDTAVYYCAKYKYYRYWGQRTQVTVSS”, the “polyreactivity (PSR sort gate)” value is “high polyreactivity”. As for “QVQLVESGRGLVQAGGSLRLSCAASGSTINYKAMGWYRQAPGKERELVAAIDSGVSTNYADSVKGLFTISRDHAKNTVYLQMNSLKPEDTAVYYCNADPDYFDYWGQGTQVTVSS”, the “polyreactivity (PSR sort gate)” value is on record as “low polyreactivity”. Next, “QVQLVESGRGLVQAGGSLRLSCAASGSTLGVNAMGWYRQAPGKERELVAAISRSGTSTYYADSVKGRFTISRDNAKNTVYLQMNSLKPEDTAVYYCAAQYVIFGSRSRQFIEYEYWGQGTQVTVSS”: “high polyreactivity”. “QVQLVESGRGLVQAGGSLRLSCAASGTYGYYAMGWYRQAPGKQRELVAAISGSGGSTYYADSVKGRFTISRDNAKNTVYLQMNSLKPEDTAVYYCAKRRRYGGRWVSGDYWGQGTQVTVSS”: the “polyreactivity (PSR sort gate)” value was “high polyreactivity”. Consider “QVQLVESGRGLVQAGGSLRLSGAASGITQDDYDMGWSRQAPGKQRELVAAITSGGSTNYAHSVKGRFTNSRDNATNTVYLQMNSLKPEDTAVYYCAADTARTRIFDYWGQGTQVTVSS”, for which the “polyreactivity (PSR sort gate)” value is recorded as “low polyreactivity”. Next, “QVQLVESGRGLVQAGGSLRLSSAASGSISLFLTMGWYRQAPGKERELVAAINYTDITKYADSVKGRFTISRDNAKNTVYLQMKSLKPDDTAVYYCARDEGYEYPLGRGGYWGQGTQVTVSS”: “low polyreactivity”; “QVQLVESGRGLVQAGGTLRLSCAASGFIFATNTMGWYRQAPGKERELVAASSTYYADSVKGRFTISRDNAKNTVYLQMNSLKPEDTAVYYCNADRDSYIGFVDWAGEYWGQGTQVTVSS”: “low polyreactivity”. In the case of “QVQLVESGRGLVQAGVSLRLSCAASGSIFDPNAMGWYRQAPGKERELVAAITSGGGSTYYADSVKGRFTISRDNAKNTVYLQMNSLKPEDTAVYYCNKVFVLQYKFVAWFDYWGQGTQVTVSS” it was “low polyreactivity”.

Regarding “QVQLVESGRGLVQEGGSLRLSCAPSGSTFTSYAMGWSRQAPGKERELVAAINYSGGSTNYADSVKGRFTLSRDNAMNTVYLQMNSLKPEDTAVYYFNVVRRSPGDYSYYYWGQGTQVTVSS”, the “polyreactivity (PSR sort gate)” value is given as “low polyreactivity”. In the case of “QVQLVESGVCLVQAGGSLLLSCAASRRIFRNAMGWYRHAPGKERELVAAISSGGTTNYADSVKGRFTISRDNAKNTVYLLMNSLKPEDTAVYYCAAAPSSYRYRYVVFTFGYWGQGTQVTVSS” it was “high polyreactivity”.

For the sequence “QVQLVESGVCLVQAGRSLPLSCAASGFTFDSNAMGWSRQAPGNESELVAAISASRDSTYYADSVKGRFTISRDNAKNTVYLQMNSLKPEETAVYYCAADSSDWPYDYWGQCTQVTVSS”, the “polyreactivity (PSR sort gate)” value was “low polyreactivity”. Turning to “QVQLVESGVGFVQAGASLRLSSAASGSIFRINAMGWYRQAPGKVRELVAAITRSGGSTFYADSVKGRFTMSRDYAKNTVYFQMHSLTPEDTAVYFCAAVWYYSTVPARYEYWGQGTQVTVSS”, the “polyreactivity (PSR sort gate)” value is reported as “low polyreactivity”.

On to “QVQLVESGVGIVQAGGSLRISCAASGTNFLFYAMGWYRQAPGKERELVATISRGGSTYYADSVKGRFTISRDNAKNTVYFQMKSLKPEDTAVYYCAARATRVTIAPRYGYWGQGTQVTVSS”, for which the “polyreactivity (PSR sort gate)” value is listed as “low polyreactivity”. For “QVQLVESGVGIVQAGGSLRLSCAASGSIFKTNAMGWYRHAPGNERELVAAITGSGGSTYYADSVKGRFTISRDNAKNNVYLQMMSLKPEDTAVYYCAKRSYRPILRWSYDYWGQGTQVTVSS”, the “polyreactivity (PSR sort gate)” value is “low polyreactivity”. As to “QVQLVESGVGLLQAGGILRISCASSGITFAWYAMVRYRQAPGKERELVAAIDDRGGSTYYADSVKGRFTISRDNAKNTVYFQMNSLKPEDTAVFYCNADTPSYEPYRLDYWGHGTQVTVSS”, the “polyreactivity (PSR sort gate)” value was “low polyreactivity”. Next, “QVQLVESGVGLLQAGGSLRLSCAAYGYTMGLYRQAPGKEREFVAAINQTGGSTSADSVKGRFTISRDNANNTVYLQLNSLKPEDTAVYYCAADISVYSDSHDVSINYRYDYWGLGTQVTVSS”: “low polyreactivity”; “QVQLVESGVGLVPAGGSLRLSCAASGSTFSANAMGWYRQAPGKERELVAAITYRGANTYYADSVKGRFTISRDNAKNTVYLQLNSLKPEDTAVYYCAAEYAYHHVGFGYWGQGTQVTVSS”: “low polyreactivity”; “QVQLVESGVGLVQAGGILRLSCAASGSIFAVNAMGWYRQAPGKERELFAAISKRGGSTYYADSVKGRFTISRDNAKNTVYLQMNSLKPEDTAVYYCAARILVTYHRDYYYWGLGTQVTVSS”: “high polyreactivity”. Take “QVQLVESGVGLVQAGGRLRLSCAASGSTFLRYAMGWYRPAPGKERELVAAISYSGGSTYYADSVKGRFTISRDNAKNTVYLQMNSLKPEDTAVYYCNAGVFANDNGGRRDQFTWEYEYWGQGTQVTVSS”: the “polyreactivity (PSR sort gate)” value was “low polyreactivity”.

In the case of “QVQLVESGVGLVQAGGSHRLSCAASGPTFRYNTMGWYRQAPGKERELVASISSGDRTDYADSVKGRFTISRDNAKYTVYLQMNSLKPEDTAVYYCNNKWYSIYYYWGQGTQVTVSS”, the “polyreactivity (PSR sort gate)” value is reported as “high polyreactivity”. Next, “QVQLVESGVGLVQAGGSLRISCAASGFIFDWNAMGWYRQAPGKERELVAAISSGGSTHYADSVKGRFTISRDNAKNTVYLQMNSLKPEDTAVYYCAARFPQWRYSRRTGERFDYWGQGTQVTVSS”: “low polyreactivity”.
